Patent US20260210939A1, “MODIFIED OLFACTORY RECEPTORS” (GIVAUDAN SA, priority 2022, published 2026)

Biological target: T1, OR7C1 (Homo sapiens, UniProt O76099, D296E/G302K/M297V/R299D/T295K/V126I)
T1 construct: Improved functional expression of modified OR-genes containing the truncated, optimized C-terminus; expressed in transfected cells; host or cells: HEK293T stably expressing human RTP1S(V227I) and RTP2(L220R)
T1 sequence (O76099 with tags, fused parts or gaps V126I/T295K/D296E/M297V/R299D/G302K): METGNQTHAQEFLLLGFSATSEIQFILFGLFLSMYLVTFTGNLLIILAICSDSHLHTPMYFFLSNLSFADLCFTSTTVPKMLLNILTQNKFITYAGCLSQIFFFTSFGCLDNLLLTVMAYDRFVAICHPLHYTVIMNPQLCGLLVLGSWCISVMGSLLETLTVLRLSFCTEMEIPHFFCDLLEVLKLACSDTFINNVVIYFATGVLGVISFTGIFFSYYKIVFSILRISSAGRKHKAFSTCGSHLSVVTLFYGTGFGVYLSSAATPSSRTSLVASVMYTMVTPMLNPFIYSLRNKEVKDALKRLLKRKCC
Test: CRE-luciferase assay, HEK293T cells expressing OR7C1 (wild-type / modified C-terminus)
Type: cell-based
Conditions: OR7C1 variant, 1 μM Ambermax
Source text: To test for possible variants of the sequence […]CC (SEQ ID NO: 86) leading to similar improved functional expression, different point mutations were introduced into the first 16 amino acids of this sequence (corresponding to […], SEQ ID NO: 10) and the variants were fused after the TM7 with OR7C1. […] The test concentrations were selected to fall into the range of partial activity of the wild-type sequence.

Substance | % of the activation by the optimized sequence RNKEVKDALKRLLKRKCC
SEQ ID NO: 88 (RNKEIKDALKRLLKRKCC; source 1..18: note = C-terminal domain sequence) | 66.5%
SEQ ID NO: 89 (RNKEMKDALKRLLKRKCC; source 1..18: note = C-terminal domain sequence) | 76.7%
SEQ ID NO: 90 (RNKEVRDALKRLLKRKCC; source 1..18: note = C-terminal domain sequence) | 117.4%
SEQ ID NO: 91 (RNKEVKKALKRLLKRKCC; source 1..18: note = C-terminal domain sequence) | 140.8%
SEQ ID NO: 92 (RNKEVKEALKRLLKRKCC; source 1..18: note = C-terminal domain sequence) | 81.3%
SEQ ID NO: 93 (RNKEVKNALKRLLKRKCC; source 1..18: note = C-terminal domain sequence) | 95.3%
SEQ ID NO: 94 (RNKEVKRALKRLLKRKCC; source 1..18: note = C-terminal domain sequence) | 176.6%
SEQ ID NO: 95 (RNKEVKVALKRLLKRKCC; source 1..18: note = C-terminal domain sequence) | 122.1%
SEQ ID NO: 96 (RNKEVKAALKRLLKRKCC; source 1..18: note = C-terminal domain sequence) | 115.3%
SEQ ID NO: 97 (RNKEVKQALKRLLKRKCC; source 1..18: note = C-terminal domain sequence) | 128.4%
SEQ ID NO: 98 (RNKEVKDAVKRLLKRKCC; source 1..18: note = C-terminal domain sequence) | 120.1%
SEQ ID NO: 99 (RNKEVKDAIKRLLKRKCC; source 1..18: note = C-terminal domain sequence) | 174.6%
SEQ ID NO: 100 (RNKEVKDALRRLLKRKCC; source 1..18: note = C-terminal domain sequence) | 86.0%
SEQ ID NO: 101 (RNKEVKDALKKLLKRKCC; source 1..18: note = C-terminal domain sequence) | 86.8%
SEQ ID NO: 102 (RNKEVKDALKRLIKRKCC; source 1..18: note = C-terminal domain sequence) | 88.6%
SEQ ID NO: 103 (RNKEVKDALKRLFKRKCC; source 1..18: note = C-terminal domain sequence) | 207.1%
SEQ ID NO: 104 (RNKEVKDALKRLLRRKCC; source 1..18: note = C-terminal domain sequence) | 96.3%
SEQ ID NO: 105 (RNKEVKDALKRLLKKKCC; source 1..18: note = C-terminal domain sequence) | 106.7%
SEQ ID NO: 106 (RNKEVKDALKRLLKRRCC; source 1..18: note = C-terminal domain sequence) | 104.1%
SEQ ID NO: 107 (RNKDVKDALKRLLKRKCC; source 1..18: note = C-terminal domain sequence) | 53.2%
SEQ ID NO: 108 (RNKQVKDALKRLLKRKCC; source 1..18: note = C-terminal domain sequence) | 42.0%
SEQ ID NO: 109 (RNKELKDALKRLLKRKCC; source 1..18: note = C-terminal domain sequence) | 43.8%
SEQ ID NO: 110 (RNKEVKGALKRLLKRKCC; source 1..18: note = C-terminal domain sequence) | 41.6%
SEQ ID NO: 111 (RNKEVKDALHRLLKRKCC; source 1..18: note = C-terminal domain sequence) | 44.4%

Substance | % of the activation by the optimized sequence RNKEVKDALKRLLKRKCC
SEQ ID NO: 112 (RNKEVKDALKRILKRKCC; source 1..18: note = C-terminal domain sequence) | 53.2%
SEQ ID NO: 113 (RNKEVKDALKRLLGRKCC; source 1..18: note = C-terminal domain sequence) | 63.2%
SEQ ID NO: 119 (RNKEVKDALRKLLKRKCC; source 1..18: note = C-terminal domain sequence) | 157.1%
SEQ ID NO: 120 (RNKEVKDALKRLLRRRCC; source 1..18: note = C-terminal domain sequence) | 90.4%
SEQ ID NO: 123 (RNKEVKRALKRLLKRKRR; source 1..18: note = C-terminal domain sequence) | 312.9%
SEQ ID NO: 124 (RNKEVKRALKRLLKRKYP; source 1..18: note = C-terminal domain sequence) | 239.7%
SEQ ID NO: 125 (RNKEVKRALKRLLKRKRF; source 1..18: note = C-terminal domain sequence) | 254.2%
SEQ ID NO: 126 (RNKEVKRALKRLLKRKFK; source 1..18: note = C-terminal domain sequence) | 280.9%
SEQ ID NO: 127 (RNKEVKKALKRLLKRKRR; source 1..18: note = C-terminal domain sequence) | 308.5%
SEQ ID NO: 128 (RNKEVKKALKRLLKRKYP; source 1..18: note = C-terminal domain sequence) | 206.9%
SEQ ID NO: 129 (RNKEVKKALKRLLKRKRF; source 1..18: note = C-terminal domain sequence) | 294.8%
SEQ ID NO: 130 (RNKEVKKALKRLLKRKFK; source 1..18: note = C-terminal domain sequence) | 286.4%
SEQ ID NO: 154 (RNKEVKDALKRLLKRKCRRRR; source 1..21: note = C-terminal domain sequence) | 263.5%
SEQ ID NO: 157 (RNKEVKDALKRLLKRKCRRRRR; source 1..22: note = C-terminal domain sequence) | 204.3%
SEQ ID NO: 158 (RNKEVKDALKRLLKRKCRRRKK; source 1..22: note = C-terminal domain sequence) | 168.8%
SEQ ID NO: 186 (KNKEVKDALKRLLKRKCC; source 1..18: note = C-terminal domain sequence) | 26.0%
SEQ ID NO: 187 (RTKEVKDALKRLLKRKCC; source 1..18: note = C-terminal domain sequence) | 3.3%
SEQ ID NO: 188 (RQKEVKDALKRLLKRKCC; source 1..18: note = C-terminal domain sequence) | 28.5%
SEQ ID NO: 189 (RNHEVKDALKRLLKRKCC; source 1..18: note = C-terminal domain sequence) | 16.2%
SEQ ID NO: 190 (RNKEVKDGLKRLLKRKCC; source 1..18: note = C-terminal domain sequence) | 4.6%
SEQ ID NO: 191 (RNKEVKDVLKRLLKRKCC; source 1..18: note = C-terminal domain sequence) | 3.9%
SEQ ID NO: 192 (RNKEVKDAMKRLLKRKCC; source 1..18: note = C-terminal domain sequence) | 27.0%
SEQ ID NO: 193 (RNKEVKDALKHLLKRKCC; source 1..18: note = C-terminal domain sequence) | 12.3%
SEQ ID NO: 194 (RNKEVKDALKRVVKRKCC; source 1..18: note = C-terminal domain sequence) | 30.4%
